Test results as given in US20060100138.

Columns and labels:
[1] = molecular target: Synthetic human type I collagen
[2] = molecular target: T1, Synthetic human type III collagen
T1 chain: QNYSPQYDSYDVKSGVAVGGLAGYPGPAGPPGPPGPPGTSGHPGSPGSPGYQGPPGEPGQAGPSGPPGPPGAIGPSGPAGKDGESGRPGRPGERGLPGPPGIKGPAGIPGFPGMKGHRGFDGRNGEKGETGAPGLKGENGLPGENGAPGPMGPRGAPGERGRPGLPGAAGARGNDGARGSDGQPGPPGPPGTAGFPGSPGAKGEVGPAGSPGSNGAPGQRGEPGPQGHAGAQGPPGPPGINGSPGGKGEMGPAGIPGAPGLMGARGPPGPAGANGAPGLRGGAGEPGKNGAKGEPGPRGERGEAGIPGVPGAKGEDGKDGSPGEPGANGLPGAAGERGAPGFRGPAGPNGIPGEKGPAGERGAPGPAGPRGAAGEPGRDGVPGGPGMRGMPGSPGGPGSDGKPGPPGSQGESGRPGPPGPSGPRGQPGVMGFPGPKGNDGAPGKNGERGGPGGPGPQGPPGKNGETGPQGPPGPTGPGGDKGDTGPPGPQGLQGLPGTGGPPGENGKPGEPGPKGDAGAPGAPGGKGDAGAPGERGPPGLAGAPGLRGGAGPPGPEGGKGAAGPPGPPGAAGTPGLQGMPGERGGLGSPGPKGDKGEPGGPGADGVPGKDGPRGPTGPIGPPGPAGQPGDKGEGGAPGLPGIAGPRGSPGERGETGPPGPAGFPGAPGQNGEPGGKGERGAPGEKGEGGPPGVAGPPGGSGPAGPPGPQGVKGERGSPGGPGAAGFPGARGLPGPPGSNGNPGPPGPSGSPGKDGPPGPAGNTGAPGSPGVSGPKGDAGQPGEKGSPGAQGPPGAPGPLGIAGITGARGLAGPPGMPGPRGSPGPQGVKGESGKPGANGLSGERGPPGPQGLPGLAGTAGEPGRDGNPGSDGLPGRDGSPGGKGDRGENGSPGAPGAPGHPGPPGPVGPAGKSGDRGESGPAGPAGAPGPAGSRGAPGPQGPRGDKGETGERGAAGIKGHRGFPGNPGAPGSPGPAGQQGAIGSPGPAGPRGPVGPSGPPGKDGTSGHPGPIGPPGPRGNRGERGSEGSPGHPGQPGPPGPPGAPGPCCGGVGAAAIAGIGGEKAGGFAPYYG

Sequence of Synthetic human type I collagen (chain, as listed by the source, chain 1 of 2): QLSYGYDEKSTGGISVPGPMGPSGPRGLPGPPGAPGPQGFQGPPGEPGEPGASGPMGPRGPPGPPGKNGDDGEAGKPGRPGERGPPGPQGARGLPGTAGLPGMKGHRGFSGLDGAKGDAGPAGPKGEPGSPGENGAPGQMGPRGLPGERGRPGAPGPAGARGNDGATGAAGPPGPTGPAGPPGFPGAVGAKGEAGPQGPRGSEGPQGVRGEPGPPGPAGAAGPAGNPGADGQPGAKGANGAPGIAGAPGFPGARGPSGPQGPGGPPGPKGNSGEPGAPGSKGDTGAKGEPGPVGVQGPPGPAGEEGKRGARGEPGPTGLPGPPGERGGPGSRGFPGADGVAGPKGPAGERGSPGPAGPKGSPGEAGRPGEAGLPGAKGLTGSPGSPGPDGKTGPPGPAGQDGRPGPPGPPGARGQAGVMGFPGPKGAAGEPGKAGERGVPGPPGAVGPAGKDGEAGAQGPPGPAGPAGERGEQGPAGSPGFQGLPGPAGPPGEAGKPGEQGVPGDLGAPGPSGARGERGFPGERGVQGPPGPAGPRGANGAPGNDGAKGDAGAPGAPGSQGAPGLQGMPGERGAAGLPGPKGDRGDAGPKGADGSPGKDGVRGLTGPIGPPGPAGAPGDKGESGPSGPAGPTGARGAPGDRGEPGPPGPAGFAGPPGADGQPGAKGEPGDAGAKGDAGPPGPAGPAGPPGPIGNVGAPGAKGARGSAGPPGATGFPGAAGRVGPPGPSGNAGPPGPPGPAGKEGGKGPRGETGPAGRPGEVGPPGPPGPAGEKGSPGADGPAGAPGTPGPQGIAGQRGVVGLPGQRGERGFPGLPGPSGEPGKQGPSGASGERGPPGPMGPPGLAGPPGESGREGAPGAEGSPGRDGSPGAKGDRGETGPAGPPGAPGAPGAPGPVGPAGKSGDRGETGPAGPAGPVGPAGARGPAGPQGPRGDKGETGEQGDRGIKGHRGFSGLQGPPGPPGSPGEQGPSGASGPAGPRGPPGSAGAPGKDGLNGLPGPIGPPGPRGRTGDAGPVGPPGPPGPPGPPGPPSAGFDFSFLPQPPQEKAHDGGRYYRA
Sequence of Synthetic human type I collagen (chain, as listed by the source, chain 2 of 2): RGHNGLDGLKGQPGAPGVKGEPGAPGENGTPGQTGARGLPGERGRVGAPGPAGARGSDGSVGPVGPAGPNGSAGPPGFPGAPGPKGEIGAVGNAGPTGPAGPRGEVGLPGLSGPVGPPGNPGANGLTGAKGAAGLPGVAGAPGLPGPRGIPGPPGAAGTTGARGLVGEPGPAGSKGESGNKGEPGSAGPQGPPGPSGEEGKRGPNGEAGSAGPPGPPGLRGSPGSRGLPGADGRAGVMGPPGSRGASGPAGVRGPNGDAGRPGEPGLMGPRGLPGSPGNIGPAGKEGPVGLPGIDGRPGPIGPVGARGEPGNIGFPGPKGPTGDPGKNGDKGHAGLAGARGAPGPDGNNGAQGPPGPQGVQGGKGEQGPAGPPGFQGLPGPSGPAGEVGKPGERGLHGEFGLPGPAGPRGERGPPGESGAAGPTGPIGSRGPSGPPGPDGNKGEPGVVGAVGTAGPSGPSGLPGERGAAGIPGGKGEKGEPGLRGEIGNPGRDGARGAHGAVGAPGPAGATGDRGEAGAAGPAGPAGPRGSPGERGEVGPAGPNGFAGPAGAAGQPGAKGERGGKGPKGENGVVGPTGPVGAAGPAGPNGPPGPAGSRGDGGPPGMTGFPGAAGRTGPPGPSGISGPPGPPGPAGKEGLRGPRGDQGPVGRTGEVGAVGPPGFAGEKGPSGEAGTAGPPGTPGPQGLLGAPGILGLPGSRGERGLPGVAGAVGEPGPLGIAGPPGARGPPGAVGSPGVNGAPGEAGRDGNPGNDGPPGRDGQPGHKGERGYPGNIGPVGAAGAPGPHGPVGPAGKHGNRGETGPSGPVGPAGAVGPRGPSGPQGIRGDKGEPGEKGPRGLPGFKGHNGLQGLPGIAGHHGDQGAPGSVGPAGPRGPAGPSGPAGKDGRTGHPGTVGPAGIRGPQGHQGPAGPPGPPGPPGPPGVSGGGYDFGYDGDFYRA

B1: MMP-1 (collagenase 1, fibroblast collagenase) (protein)
chain: FVLTEGNPRWEQTHLTYRIENYTPDLPRADVDHAIEKAFQLWSNVTPLTFTKVSEGQADIMISFVRGDHRDNSPFDGPGGNLAHAFQPGPGIGGDAHFDEDERWTNNFREYNLHRVAAHELGHSLGLSHSTDIGALMYPSYTFSGDVQLAQDDIDGIQAIYGRSQNPVQPIGPQTPKACDSKLTFDAITTIRGEVMFFKDRFYMRTNPFYPEVELNFISVFWPQLPNGLEAAYEFADRDEVRFFKGNKYWAVQGQNVLHGYPKDIYSSFGFPRTVKHIDAALSEENTGKTYFFVANKYWRYDEYKRSMDPGYPKMIAHDFPGIGHKVDAVFMKDGFFYFFHGTRQYKFDPKTKRILTLQKANSWFNCRKN
cleavage of collagen (SDS-PAGE after 1, 2 and 7 days at 37 C) [1]: both synthetic human type I and type III collagen were cleaved by MMP-1 (FIG. 1A) and MMP-8 (FIG. 1B)
cleavage of collagen (SDS-PAGE after 1, 2 and 7 days at 37 C) [2]: both synthetic human type I and type III collagen were cleaved by MMP-1 (FIG. 1A) and MMP-8 (FIG. 1B)
extent of degradation of collagen (SDS-PAGE) [2]: Synthetic human type III collagen was degraded by MMP-1 to a greater extent than by MMP-8
